Test results as given in patent publication KR20220054080A (dated 2022).
Where two headings read alike, the source gives them in different places.

Key:
SARS-CoV-2 RBD-mFc [1] = target: T1, SARS-CoV-2 RBD-mFc (SARS-CoV-2, UniProt P0DTC2 319-541); test: flow cytometry competition: RBD-mFc on HEK293E/ACE2 cells
T1 construct: range 319-541

SARS-CoV-2 RBD-mFc [2] = target: T1, SARS-CoV-2 RBD-mFc; test: Octet QKe BLI, 1:1 global fit
SARS-CoV-2 스파이크 S1-mFc [3] = target: T2, SARS-CoV-2 스파이크 S1-mFc (SARS-CoV-2, UniProt P0DTC2 16-685); test: competition ELISA: S1-mFc on coated ACE2-His
T2 construct: range 16-685

SARS-CoV-2 RBD-hFc [4] = target: T3, SARS-CoV-2 RBD-hFc (SARS-CoV-2, UniProt P0DTC2 319-541); test: cell-based or functional assay
[5] = target: T4, SARS-CoV-2 spike protein on live SARS-CoV-2 virus (SARS-CoV-2, UniProt P0DTC2 14-1273); test: cell-based or functional assay
[6] = target: T5, SARS-CoV 스파이크 [change] (#40150-V08B1, Sino Biological) (SARS-CoV, UniProt P59594 14-667); test: ELISA, coated S1-His
SARS-CoV-2 스파이크 S1-mFc [7] = target: T2, SARS-CoV-2 스파이크 S1-mFc; test: competition ELISA: S1-mFc on coated ACE2-His; remark: listed apart in the source
SARS-CoV-2 RBD-mFc [8] = target: T1, SARS-CoV-2 RBD-mFc; test: competition ELISA: RBD-mFc on coated ACE2-His
[9] = target: SARS-CoV RBD-His (#40150-V08B2, Sino Biological) (SARS-CoV, UniProt P59594 306-527); test: ELISA, coated His-tagged antigen
SARS-CoV-2 RBD-mFc [10] = target: T1, SARS-CoV-2 RBD-mFc; test: competition ELISA: RBD-mFc on coated ACE2-His; remark: listed apart in the source
[11] = target: T4, SARS-CoV-2 spike protein on live …; test: cell-based or functional assay; remark: listed apart in the source
SARS-CoV-2 스파이크 S1-mFc [12] = target: T2, SARS-CoV-2 스파이크 S1-mFc
SARS-CoV-2 RBD-mFc [13] = target: T1, SARS-CoV-2 RBD-mFc
SARS-CoV-2 RBD-mFc [14] = target: T1, SARS-CoV-2 RBD-mFc; remark: listed apart in the source
SARS-CoV-2 RBD-mFc [15] = target: T1, SARS-CoV-2 RBD-mFc; test: flow cytometry competition: RBD-mFc on HEK293E/ACE2 cells; remark: listed apart in the source
SARS-CoV-2 RBD-hFc [16] = target: T3, SARS-CoV-2 RBD-hFc; test: cell-based or functional assay; remark: listed apart in the source
[17] = target: T5, SARS-CoV 스파이크 [change] (#40150-V08B1, …); test: ELISA, coated S1-His, as Example 5.2
SARS-CoV-2 RBD-mFc [18] = target: T1, SARS-CoV-2 RBD-mFc; test: Octet QKe BLI, 1:1 global fit; remark: listed apart in the source

| Binder | IC50, 세포내 유입(internalization) 억제, HEK293E/ACE2-GFP (SARS-CoV-2 RBD-hFc [4]) | IC50, live SARS-CoV-2 미세중화분석, Vero 세포, 72시간 [5] | IC50 (SARS-CoV-2 스파이크 S1-mFc [7]) | binding result [9] | IC50 (SARS-CoV-2 RBD-mFc [10]) | IC50 (SARS-CoV-2 RBD-mFc [15]) | binding result [17] | Kd (SARS-CoV-2 RBD-mFc [18]) | koff (SARS-CoV-2 RBD-mFc [18]) | kon (SARS-CoV-2 RBD-mFc [18]) | other results |
| --- | --- | --- | --- | --- | --- | --- | --- | --- | --- | --- | --- |
| SA3755 (antibody, V domains shown) VH: QMQLVESGGGVVQPGGSLRLSCAASGFTFDDHTMHWVRQAPGKGLEWVSLISWDGGSTYYADSVKGRFTISRDNSKNSLYLQMNSLRAEDTAVYYCTRDASRRPGDGGYDFDVWGQGTQVTVSS VL: QAVVTQEPSLTVSPGGTVTLTCGSSTGTVTRGHWPYWFQQKPGQAPRTLIYDTDNKHSWTPARFSGSLLGGKAALTLSGAQPEDEADYYCLLSYSDSRVFGTGTKVTVL | 35.8 nM | 5.12 nM | 4.67 nM | no binding | 5.71 nM | 3.09 nM | – | – | – | – | IC50 (SARS-CoV-2 RBD-mFc [1]): 3.8 nM; Kd (SARS-CoV-2 RBD-mFc [2]): 1.06 nM; koff (SARS-CoV-2 RBD-mFc [2]): 0.000424 s⁻¹; kon (SARS-CoV-2 RBD-mFc [2]): 399000 M⁻¹ s⁻¹; IC50 (SARS-CoV-2 스파이크 S1-mFc [3]): 4.06 nM; binding result [6]: no binding (tested: 50 nM); IC50 (SARS-CoV-2 RBD-mFc [8]): 7.74 nM; IC50, live SARS-CoV-2 미세중화분석, Vero 세포 [11]: 8.74 nM; IC50 (SARS-CoV-2 스파이크 S1-mFc [12]): 8.27 nM; IC50 (SARS-CoV-2 RBD-mFc [13]): 23.1 nM; IC50 (SARS-CoV-2 RBD-mFc [14]): 2.26 nM; IC50, 세포내 유입(internalization) 억제, HEK293E/ACE2-GFP (SARS-CoV-2 RBD-hFc [16]): 40 nM |
| SA4118 (antibody, V domains shown) VH: QVQLVESGAEVKKPGASVRVSCKISGYIFTELSIHWVRQAPGKGLEWMGGFDPEEGKTIYAQKFQGRVTMTEDTSTDTAYMELSSLRSEDTAVYYCAKIGHLGDFWYWGQGTLITVSS VL: QSALTQPASVSGSPGQSITISCTGTTSDIGSYDYVSWYQQHPGKAPKLIIYGVTRRPSGVSNRFSGSKSGNTASLTISGLQAEDEANYYCSSCTRSSTYVFGTGTKVTVL | 31.4 nM | 8.29 nM | 2.28 nM | no binding | 0.709 nM | 2.71 nM | no binding | 0.0296 nM | 2.05e-05 s⁻¹ | 695000 M⁻¹ s⁻¹ | – |
| SA4086 (antibody, V domains shown) VH: QVQLVESGGGVVQPGRSLRLSCAASGFTFSSYAMHWVRQAPGKGLEWVAVISYDGSNKYYADSAKGRFTISRDNSKNTLYLQMNSLRAEDTAVYYCARRGHYYDSSGYLYWGHGTLITVSS VL: DIQMTQSPSSLSASVGDRVTITCRASQSISTYLSWYQQKPGKAPKLLIYAASNLQSGVPSRFSASGSGTDFTLTISSLQPEDFATYYCQQSYNTPRTFGQGTKVEIK | 27.2 nM | 12.4 nM | 1.28 nM | no binding | 1.24 nM | 2.47 nM | no binding | 0.106 nM | 4.99e-05 s⁻¹ | 471000 M⁻¹ s⁻¹ | – |
| SA4114 (antibody, V domains shown) VH: QVQLVESGGTLVQPGRSLRLSCAASGFTFSSYAMHWVRQAPGKGLEWVAVISYDGSNKYYADSVKGRFTISRDNSKNTLYLQMNSLRAEDTAVYYCARRGHYYDSSGFLYWGQGTLVTVSS VL: DIQMTQSPSSLSASVGDRVTITCRAGQSIDNYLNWYQQKPGKAPKLLIYAASTLHSGVPSRFSGSGSGTDFTLTISSLQPDDFATYYCQQSYSIPRTFGQGTKLEIK | 24.1 nM | 12.8 nM | 1.19 nM | no binding | 0.364 nM | 2.39 nM | no binding | 0.0899 nM | 3.89e-05 s⁻¹ | 433000 M⁻¹ s⁻¹ | – |
